Assay results taken from patent US6991908B1, “Antiobestic agents methods for screening antiobestic agents and kits comprising same” (Takeda Chemical Industries, Ltd., priority 1998, dated 2006).
Positions of bridges follow the written chain, without caps; N, C: chain ends. No end group written: not given here. *: point of attachment. X1 = 3‑(4-hydroxy-3-iodophenyl)propionyl, O=C(CCc1ccc(O)c(I)c1)*

Key:
Assay type in all cases: biochemical
rat SLC-1 [1] = biological target: T1, rat SLC-1 (Rattus norvegicus, UniProt P97639); assay: Inhibition of MCH-induced GTPγS binding by the method of Example 21 (compound plus MCH); details: read-out: IC50 calculated from the binding inhibition rate (%)
T1 construct: expressed in transfected cells; host or cells: CHO dhfr- cells, plasmid pAKK0-SLC-1, mainly clone #44
T1 sequence (P97639 whole entry): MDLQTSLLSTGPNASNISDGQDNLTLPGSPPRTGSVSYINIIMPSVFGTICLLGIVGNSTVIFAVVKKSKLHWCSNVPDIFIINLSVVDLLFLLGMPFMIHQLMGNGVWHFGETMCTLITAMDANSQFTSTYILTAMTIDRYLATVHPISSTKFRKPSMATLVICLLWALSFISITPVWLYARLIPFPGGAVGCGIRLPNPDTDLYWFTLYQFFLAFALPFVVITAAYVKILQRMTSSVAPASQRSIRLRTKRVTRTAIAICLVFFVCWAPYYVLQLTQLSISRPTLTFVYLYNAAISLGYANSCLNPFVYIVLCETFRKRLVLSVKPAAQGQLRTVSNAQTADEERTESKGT
Experimental: The IC50(nM) of the compound (1) supra
(§1) A rat SLC-1-expression CHO cell membrane fraction was prepared by the following procedure. Rat SLC-1-expression CHO cells (1×10^8 cells) were suspended in phosphate buffered saline (pH 7.4) supplemented with 5 mM EDTA (ethylene diamine tetra acetic acid) followed by centrifugation. after 10 ml of a homogenate buffer (10 mM NaHCO3, 5 mM EDTA, pH 7.5) was added to the cell pellets, the mixture was homogenized with a polytron homogenizer. the homogenate was then centrifuged at 400×g for 15 minutes. the resulting supernatant was further centrifuged at 100,000×g for an hour to give membrane fraction precipitates. the precipitates were suspended in 2 ml of an assay buffer (50 mM Tris-HCl (pH 7.5), 1 mM EDTA, 0.1% BSA (bovine serum albumin), 10 mM MgCl2, 100 mM NaCl, 1 μM GDP (guanosine 5′-diphosphate), 0.25 mM PMSF (phenylmethylsulfonyl fluoride), 1 μg/ml pepstatin, 20 μg/ml leupeptin, 10 μg/ml phosphoramidon). the suspension was centrifuged at 100,000×g for an hour. the cell membrane recovered as precipitates was resuspended in 20 ml of the assay buffer. after dispensing, the suspension was stored at −80° C., which maybe thawed every time upon use.

rat SLC-1 [2] = biological target: T1, rat SLC-1; assay: Agonist activity by GTPγS binding assay, rat SLC-1-expression CHO cell membrane fraction (Example 21); details: rat SLC-1 membrane, FIG. 7
Experimental: as §1

human SLC-1 = biological target: T2, human SLC-1 (Homo sapiens, UniProt Q99705); assay: Agonist activity of Bolton-Hunter derivatized MCHs by GTPγS binding assay (Example 22); details: membrane fraction given as human SLC-1-expression CHO; FIG. 8
T2 construct: expressed in transfected cells; host or cells: CHO dhfr- cells, plasmid pAKK0-hSLC-1(S) or pAKK0-hSLC-1(L)
T2 sequence (Q99705 with tags, fused parts or gaps): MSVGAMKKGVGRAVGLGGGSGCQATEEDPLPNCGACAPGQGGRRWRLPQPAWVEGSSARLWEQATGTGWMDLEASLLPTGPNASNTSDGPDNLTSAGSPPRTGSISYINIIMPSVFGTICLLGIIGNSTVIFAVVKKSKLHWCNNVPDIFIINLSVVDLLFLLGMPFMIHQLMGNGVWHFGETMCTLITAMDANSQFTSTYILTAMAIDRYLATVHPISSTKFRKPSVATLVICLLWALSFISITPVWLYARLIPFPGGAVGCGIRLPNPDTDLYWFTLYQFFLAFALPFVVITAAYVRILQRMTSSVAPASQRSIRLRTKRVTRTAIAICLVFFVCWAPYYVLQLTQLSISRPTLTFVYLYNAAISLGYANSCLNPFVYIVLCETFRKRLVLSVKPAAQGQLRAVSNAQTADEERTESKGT

| agonist activity as compared to that of MCH (rat SLC-1 [2]) | amount of [35S]-GTPγS bound (agonist activity), dose dependence (human SLC-1) | Molecule | other results |
| --- | --- | --- | --- |
| – | – | COc1ccc(-c2ccc(C(=O)Nc3ccc4c(c3)CCC(CN(C)C)C4)cc2)cc1 (stereo not shown) [compound (1), N-[2-(N,N-Dimethylamino)methyl-6-tetralinyl]-(4′-methoxybiphenyl-4-yl)carboxamide] | IC50 (rat SLC-1 [1]): 40 nM |
| almost the same agonist activity | – | Asp-Met-Leu-Arg-Cys-Met-Leu-Gly-Arg-Val-Tyr-Arg-Pro-Cys -Trp-Gln-Val (DMLRCMLGRVYRPCWQV; disulfide 5-14) [MCH(3-19)] | – |
| – | increased dose-dependently | BH-MCH(2-19): MCH(2-19) derivatized with a non-isotope Bolton-Hunter reagent (X1-FDMLRCMLGRVYRPCWQV; disulfide 6-15) | – |
| – | increased dose-dependently | BH-MCH(3-19): MCH(3-19) derivatized with a non-isotope Bolton-Hunter reagent (X1-DMLRCMLGRVYRPCWQV; disulfide 5-14) | – |
| – | increased dose-dependently | BH-MCH(5-19): MCH(5-19) derivatized with a non-isotope Bolton-Hunter reagent (X1-LRCMLGRVYRPCWQV; disulfide 3-12) | – |
| – | – | Des-[Asp^1, Phe^2, Asp^3, Met, Leu^5]-MCH (RCMLGRVYRPCWQV; disulfide 2-11) [MCH(6-19)] | decrease of agonist activity as compared to that of MCH (rat SLC-1 [2]): approximately 10 times |
| almost the same agonist activity | – | Leu-Arg-Cys-Met-Leu-Gly-Arg-Val-Tyr-Arg-Pro-Cys-Trp-Gln -Val-OH (LRCMLGRVYRPCWQV-OH; disulfide 3-12; N-terminus assumed; SMILES CSCC[C@@H]1NC(=O)[C@@H](NC(=O)[C@H](CCCNC(=N)N)NC(=O)[C@@H](N)CC(C)C)CSSC[C@@H](C(=O)N[C@@H](Cc2c[nH]c3ccccc23)C(=O)N[C@@H](CCC(N)=O)C(=O)N[C@H](C(=O)O)C(C)C)NC(=O)[C@@H]2CCCN2C(=O)[C@H](CCCNC(=N)N)NC(=O)[C@H](Cc2ccc(O)cc2)NC(=O)[C@H](C(C)C)NC(=O)[C@H](CCCNC(=N)N)NC(=O)CNC(=O)[C@H](CC(C)C)NC1=O) [MCH(5-19)] | – |
| almost the same agonist activity | – | Met-Leu-Arg-Cys-Met-Leu-Gly-Arg-Val-Tyr-Arg-Pro-Cys-Trp -Gln-Val (MLRCMLGRVYRPCWQV; disulfide 4-13) [MCH(4-19)] | – |
| almost the same agonist activity | – | Phe-Asp-Met-Leu-Arg-Cys-Met-Leu-Gly-Arg-Val-Tyr-Arg-Pro -Cys-Trp-Gln-Val (FDMLRCMLGRVYRPCWQV; disulfide 6-15) [MCH(2-19)] | – |
| – | increased dose-dependently | [N-(3-(4-Hydroxy-3-iodophenyl)propionyl)-Met^4]-MCH(4-19) (X1-MLRCMLGRVYRPCWQV; disulfide 4-13) [BH-MCH(4-19)] | – |
